Article PMC6325625, “The traffic ATPase PilF interacts with the inner membrane platform of the DNA translocator and type IV pili from Thermus thermophilus” (FEBS Open Bio, 2018)

Key:
[1] = biological target: His6-PilM-PilN-Strep complex (Thermus thermophilus HB27) (UniProt Q8VRL8)
[2] = biological target: His6-PilF (traffic ATPase PilF, hexameric complex) (Thermus thermophilus); assay: native gel or EMSA; clear-native PAGE (3-15%) of purified His6-PilF; data not shown
[3] = biological target: His6-PilM(K26A)-PilN-Strep complex (Thermus thermophilus HB27) (UniProt Q8VRL8)
PilM [4] = biological target: PilM (Thermus thermophilus, UniProt Q72IW8); assay: luciferase assay of co-purified ATP after TCA precipitation; also UV photo cross-linking with [alpha-32P]-ATP; type: binding; conditions: ATP retained from E. coli, none added
PilM [5] = biological target: T1, PilM (Thermus thermophilus, UniProt Q72IW8, K26A); assay: UV photo cross-linking and autoradiography; luciferase ATP content; conditions: labelled compound [alpha-32P]-ATP; MN buffer pH 7.5, 5 mM MgCl2, 0.02% DDM, on ice; binding not detected
T1 construct: full length, N-terminal His6 tag kept; pET28a, E. coli BL21 (DE3), Ni-NTA from the soluble fraction of cells co-expressing pilN-Strep; about 44 kDa monomer

[6] = biological target: PilN-Strep (Thermus thermophilus HB27) (UniProt Q8VRL7); assay: native gel or EMSA; 5-20% clear-native PAGE of purified His6-PilMN-Strep, His6-PilMNO-Strep and His6-PilM; bands of PilMN cut out and run on 14% SDS/PAGE

T1 sequence (Q72IW8 entry or part of it K26A): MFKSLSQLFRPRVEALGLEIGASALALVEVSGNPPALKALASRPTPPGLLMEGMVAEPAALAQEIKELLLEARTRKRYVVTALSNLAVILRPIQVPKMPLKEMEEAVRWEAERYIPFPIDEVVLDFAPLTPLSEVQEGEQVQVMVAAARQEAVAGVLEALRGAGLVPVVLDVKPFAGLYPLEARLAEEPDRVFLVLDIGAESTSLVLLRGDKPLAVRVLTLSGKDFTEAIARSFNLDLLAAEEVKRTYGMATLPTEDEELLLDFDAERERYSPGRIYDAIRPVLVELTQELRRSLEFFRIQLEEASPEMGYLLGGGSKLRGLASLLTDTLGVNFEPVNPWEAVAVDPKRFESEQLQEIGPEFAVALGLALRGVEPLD

Q: How did the ATPase activity of PilF (malachite green assay, 68 °C, 66.7 pmol PilF hexamer) with increasing amounts of PilMN, up to a ratio of 1 : 20 (PilF complex : PilMN complex) [1] turn out when “His6-PilF (traffic ATPase PilF, hexameric complex) (enzyme)” was run?
A: 2 fold

Q: And the stoichiometry N [2]?
A: 6

Q: What about the ATPase activity of the PilF hexamer mixed with PilM (K26A)N complex in a ratio of 1 : 20 [3] of the same molecule?
A: 2 fold

Q: Which results are given for `Nc1ncnc2c1ncn2[C@@H]1O[C@H](COP(=O)(O)OP(=O)(O)OP(=O)(O)O)[C@@H](O)[C@H]1O` [ATP]?
A: ATP per PilM monomer (PilM [4]): 0.89 ± 0.35 ATP per PilM monomer; UV photo cross-linking and autoradiography; luciferase ATP content (PilM [5]): no ATP was found in the PilMK26A variant

B1: His6-PilM (soluble PilM from cells expressing His6-pilMN-Strep) (natural protein)
chain: MFKSLSQLFRPRVEALGLEIGASALKLVEVSGNPPALKALASRPTPPGLLMEGMVAEPAALAQEIKELLLEARTRKRYVVTALSNLAVILRPIQVPKMPLKEMEEAVRWEAERYIPFPIDEVVLDFAPLTPLSEVQEGEQVQVMVAAARQEAVAGVLEALRGAGLVPVVLDVKPFAGLYPLEARLAEEPDRVFLVLDIGAESTSLVLLRGDKPLAVRVLTLSGKDFTEAIARSFNLDLLAAEEVKRTYGMATLPTEDEELLLDFDAERERYSPGRIYDAIRPVLVELTQELRRSLEFFRIQLEEASPEMGYLLGGGSKLRGLASLLTDTLGVNFEPVNPWEAVAVDPKRFESEQLQEIGPEFAVALGLALRGVEPLD
Q: Which results are given for B1?
A: stoichiometry N [6]: 1 PilM : PilN; stoichiometry PilM : PilN of the larger (~195 kDa) oligomer, copies of each chain (copies of each chain) [6]: 3
